# Tests used:
# [1] = target: alpha 1 acid glycoprotein
# [2] = target: Fetuin (Bos taurus (Bovine)) (UniProt P12763)
# [3] = target: Bovine submaxillary mucin (bovine)
# [4] = target: Asialo-fetuin (Bos taurus (Bovine)) (UniProt P12763)
# [5] = target: Bovine submaxillary asialo-mucin (bovine)
# [6] = target: Asialo-alpha 1 acid glycoprotein
# [7] = target: Asialo-orosomucoid
# [8] = target: alpha 1 acid glycoprotein; remark: listed apart in the source
# [9] = target: Ovomucoid
# [10] = target: Asialo-ovomucoid
# [11] = target: Fetuin (Bos taurus (Bovine)) (UniProt P12763); remark: listed apart in the source
# [12] = target: Bovine submaxillary mucin (bovine); remark: listed apart in the source
# [13] = target: Asialo-fetuin (Bos taurus (Bovine)) (UniProt P12763); remark: listed apart in the source
# [14] = target: Bovine submaxillary asialo-mucin (bovine); remark: listed apart in the source
# [15] = target: Asialo-alpha 1 acid glycoprotein; remark: listed apart in the source
# [16] = substrate: CC(=O)N[C@H]1C(O)O[C@H](CO)[C@@H](O[C@@H]2O[C@H](CO)[C@H](O)[C@H](O)[C@H]2O)[C@@H]1O; assay: cells, lysate or membranes named; settings: other: renatured enzyme after removal of urea by dialysis
# [17] = substrate: CC(=O)N[C@H]1[C@H]([C@H](O)[C@H](O)CO)O[C@](OP(=O)(O)OC[C@H]2O[C@@H](n3ccc(N)nc3=O)[C@H](O)[C@@H]2O)(C(=O)O)C[C@@H]1O; assay: Sialyltransferase assay, kinetic parameters (Km) of the renatured enzyme; assay type: biochemical, mouse; settings: other: renatured enzyme after removal of urea by dialysis; measured with N-acetyllactosamine as the acceptor
# Method: Reaction mixture was added with 1 mg/ml bovine serum albumin, 1 μl of the enzyme solution, and 50 mM sodium cacodylate (pH 6.0) to a total volume of 10 μl, and incubation was continued at 37° C. for 1 h. Then, the samples were applied to silica gel60 HPTLC plate (Merck Germany) and developed with ethanol/pyridine/n-butanol/acetic acid/water (100:10:10:3:30) as a developing solvent. The radioactivity transferred on each plate was determined with a radio image analyzer BAS2000 (Fuji Photo Film, Japan, Lee, Y.-C. et al., Eur. J. Biochem., 216, 377-385, 1993).
# [18] = substrate: CC(=O)N[C@H]1[C@H]([C@H](O)[C@H](O)CO)O[C@](OP(=O)(O)OC[C@H]2O[C@@H](n3ccc(N)nc3=O)[C@H](O)[C@@H]2O)(C(=O)O)C[C@@H]1O; assay: purified protein, by the assay type; settings: other: measured with N-acetyllactosamine as the acceptor; pH 6.0; 37.0 °C
# [19] = substrate: CC(=O)N[C@H]1C(O)O[C@H](CO)[C@@H](O[C@@H]2O[C@H](CO)[C@H](O)[C@H](O)[C@H]2O)[C@@H]1O; assay: purified protein, by the assay type; settings: pH 6.0; 37.0 °C
molecule,measurement,setting,value
"Renatured mouse Gal beta 1,4GlcNAc alpha 2,6-sialyltransferase (from UniProt Q64685) (enzyme)","Relative Activity to Gal β 1,4GlcNAc (relative to Gal β 1,4GlcNAc)",[1],0.1
same,"Relative Activity to Gal β 1,4GlcNAc (relative to Gal β 1,4GlcNAc)",[2],0.25
same,"Relative Activity to Gal β 1,4GlcNAc (% of the control)",[3],< 2
same,"Relative Activity to Gal β 1,4GlcNAc (relative to Gal β 1,4GlcNAc)",[4],1.5
same,"Relative Activity to Gal β 1,4GlcNAc (% of the control)",[5],< 2
same,"Relative Activity to Gal β 1,4GlcNAc (relative to Gal β 1,4GlcNAc)",[6],2.1
same,Km,[7],400 µM
"GalNAc alpha 2,6-sialyltransferase P-B3 (enzyme)","Acceptor substrate specificity, pmol/h/µl enzyme fraction ([14C]NeuAc transfer)",[8],< 0.5 pmol/h
same,"Acceptor substrate specificity, pmol/h/µl enzyme fraction ([14C]NeuAc transfer)",[9],< 0.5 pmol/h
same,"Acceptor substrate specificity, pmol/h/µl enzyme fraction ([14C]NeuAc transfer)",[10],1 pmol/h/µL
same,"Acceptor substrate specificity, pmol/h/µl enzyme fraction ([14C]NeuAc transfer)",[11],28 pmol/h/µL
same,"Acceptor substrate specificity, pmol/h/µl enzyme fraction ([14C]NeuAc transfer)",[12],0.5 pmol/h/µL
same,"Acceptor substrate specificity, pmol/h/µl enzyme fraction ([14C]NeuAc transfer)",[13],35 pmol/h/µL
same,"Acceptor substrate specificity, pmol/h/µl enzyme fraction ([14C]NeuAc transfer)",[14],5.2 pmol/h/µL
same,"Acceptor substrate specificity, pmol/h/µl enzyme fraction ([14C]NeuAc transfer)",[15],1.2 pmol/h/µL
"Rat liver Gal beta 1,4GlcNAc alpha 2,6-sialyltransferase (from UniProt P13721) (enzyme)","Relative Activity to Gal β 1,4GlcNAc (relative to Gal β 1,4GlcNAc)",[1],0.1
same,"Relative Activity to Gal β 1,4GlcNAc (% of the control)",[2],< 2
same,"Relative Activity to Gal β 1,4GlcNAc (% of the control)",[3],< 2
same,"Relative Activity to Gal β 1,4GlcNAc (relative to Gal β 1,4GlcNAc)",[4],0.97
same,"Relative Activity to Gal β 1,4GlcNAc (% of the control)",[5],< 2
same,"Relative Activity to Gal β 1,4GlcNAc (relative to Gal β 1,4GlcNAc)",[6],1
same,Km,[7],200 µM
"mouse Gal β 1,4GlcNAc α 2,6-sialyltransferase, recombinant soluble form lacking the cytosolic and transmembrane domains (29th amino acid residue to C-terminal … (protein) GSDYEALTLQAKVFQMPKSQEKVAVGPAPQAVFSNSKQDPKEGVQILSYPRVTAKVKPQPSLQVWDKDSTYSKLNPRLLKIWRNYLNMNKYKVSYKGPGPGVKFSVEALRCHLRDHVNVSMIEATDFPFNTTEWEGYLPKENFRTKAGPWHKCAVVSSAGSLKNSQLGREIDNHDAVLRFNGAPTDNFQQDVGTKTTIRLVNSQLVTTEKRFLKDSLYTEGILILWDPSVYHADIPQWYQKPDYNFFETYKSYRRLHPSQPFYILKPQMPWELWDIIQEISPDLIQPNPPSSGMLGIIIMMTLCDQVDIYEFLPSKRKTDVCYYHQKFFDSACTMGAYHPLLFEKNMVKHLNEGTDEDIYLFGKATLSGFRNNRC",Km,[16],6500 µM
same,Km,[17],80 µM
"Rat liver Gal β 1,4GlcNAc α 2,6-sialyltransferase (obtained from Sigma) (Rattus norvegicus) (protein) MIHTNLKKKFSLFILVFLLFAVICVWKKGSDYEALTLQAKEFQMPKSQEKVAMGSASQVVFSNSKQDPKEDIPILSYHRVTAKVKPQPSFQVWDKDSTYSKLNPRLLKIWRNYLNMNKYKVSYKGPGPGVKFSVEALRCHLRDHVNVSMIEATDFPFNTTEWEGYLPKENFRTKVGPWQRCAVVSSAGSLKNSQLGREIDNHDAVLRFNGAPTDNFQQDVGSKTTIRLMNSQLVTTEKRFLKDSLYTEGILIVWDPSVYHADIPKWYQKPDYNFFETYKSYRRLNPSQPFYILKPQMPWELWDIIQEISADLIQPNPPSSGMLGIIIMMTLCDQVDIYEFLPSKRKTDVCYYHQKFFDSACTMGAYHPLLFEKNMVKHLNEGTDEDIYLFGKATLSGFRNIRC",Km,[18],40 µM
same,Km,[19],5000 µM

# — patent publication US5854042A, “Sugar-chain synthetase and process for producing the same” (The Institute of Physical and Chemical Research, priority 1993, dated 1998)
